Measurements from patent US20190262387A1.
No end group written: not given here.

Tests used:
[1] = target: collagen I (thin coating on polystyrene tissue culture plate); test: normalized fluorescence of PEG-fluorescein conjugated peptide on collagen I coated plate after washing; reference is scrambled collagen I binding peptide (FIG. 2D)
[2] = target: collagen II (thin coating on polystyrene tissue culture plate); test: normalized fluorescence of PEG-fluorescein conjugated peptide on collagen II coated plate after washing; reference is scrambled collagen II binding peptide (FIG. 2I)

normalized fluorescence intensity relative to scrambled peptide (times that of scrambled peptide) [1] | normalized fluorescence intensity relative to scrambled peptide (times that of scrambled peptide) [2] | Binder
1.55 | – | YSFYSDESLQ (also: conjugated to PEG-fluorescein, site not given here) [collagen I binding peptide conjugated to PEG-fluorescein]
– | 1.65 | WYRGRL (also: conjugated to PEG-fluorescein, site not given here) [collagen II binding peptide conjugated to PEG-fluorescein]
